Source: patent US20220186225, “COMPOUNDS FOR DETECTING AND TREATING MYCOPLASMA HYOPNEUMONIAE” (AEROVIRUS TECHNOLOGIES INC., published 2022)

T1: P97 cilium adhesin peptidic complex (F2P97 / R1-containing section, SELEX target) (Mycoplasma hyopneumoniae)
T1 chain: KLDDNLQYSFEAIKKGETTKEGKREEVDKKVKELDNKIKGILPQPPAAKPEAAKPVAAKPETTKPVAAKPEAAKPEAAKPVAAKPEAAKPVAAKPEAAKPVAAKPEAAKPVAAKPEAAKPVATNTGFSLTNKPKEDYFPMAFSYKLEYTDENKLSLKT

B1: APT3Cooc3 (ssDNA)
DNA: GCCTGTTGTGAGCCTCCTAACTAGCTCGTAGAAAAAAAATATAGCGTGTGCTGGGACTGCTCGGGATTGCGGACACATGCTTATTCTTGTCTCCC
B2: APT3Histo1 (ssDNA)
DNA: GCCTGTTGTGAGCCTCCTAACCGCACGTGGGTATTCTAAGTGCGGTAGCTCAATGGTGAGCGATGAGCATCATGCTTATTCTTGTCTCCC

Target: T1, P97 cilium adhesin peptidic complex …
Experiment: ELISA; reverse screening on streptavidin plate, 37 C
Conditions: tags: His tag (Ni-NTA captured); label: biotin in reverse screening
Protocol: Reverse Screening of Aptamer—Selected ssDNA molecules from each individual clone were biotinylated using the B-T3 which is same sequence with 5′ primer (T3 primer), and Klenow fragment (2 unit/ml). To prepare single stranded biotin conjugated APT3Cooc10 aptamer for the reverse screening. T3 Primer was Biotin labelled. A 96-well flat bottom ELISA plate was prepared by coating each well with 100 μl of streptavidin (100 μg/ml) diluted in 0.1 M NaHCO₃ following by a 37° C. overnight incubation. Following several washings with PBS, wells were blocked with 200 μl of PBS containing 1% BSA for 2 hours at room temperature and subsequent washing three times with PBS-T (10 mM PBS containing 0.05% (v/v) Tween-20). Thereafter, 100 μl of 2.5 pmole/100 μl biotinylated-ssDNA were added to the wells and incubated at 37° C. for 2 hours followed by washing four times with PBS-T. T3 primer was used as negative control. Following washing, 100 μl of fluid containing 2 μg histidine labelled P97 peptidic complex were added to the indicated wells and incubated at 37° C. for 2 hours. […]
Enzyme-Linked Immunosorbent Assay (ELISA)—The ELISA tests were carried-out following all the guidelines provided with the DAKO kit. Reaction was terminated with 100 μl of 0.5M H₂SO₄, and the plates were read with a multichannel spectrophotometer at 450 nm.

| Binder | binding result |
| --- | --- |
| B1 | binds |
| B2 | binds |
